Results on 1 molecule are retold here after patent US20030059827A1, “Engineered protein binding domains and methods and systems for their design and use” (priority 2001, published 2003).

The target of experiment [1] is GFP-PEP (natural target peptide of the PDZ-3 domain, C-terminus of CRIPT) (Aequorea victoria, UniProt P42212, F64L/H231L/S65T). The conditions noted are these: PDZ fused to Gal4 activation domain, GFP-pep fused to Gal4 binding domain, SD lacking Trp, Leu, His, Adenine. The protocol: The two parts of the yeast two-hybrid system were prepared as follows. On one hand, either of the GFP derivatives carrying the C-terminal protein sequences (GFP-pep and GFP-Eg5) were cloned between the NcoI and BamHI sites the pGBKT7 plasmid (Clontech) to obtain a fusion with the DNA binding domain of Gal4. On the other hand, the modified PDZ domains were cloned between the EcoRI and XhoI sites of pGADT7 (Clontech) to obtain a fusion with the activation domain of Gal4. The resulting plasmids were introduced in the yeast strain J569a using the method described by Agatep et al, 1998. Yeast cells were plated in SD lacking Trp and Leu, and then stricken in selective SD medium lacking Trp, Leu, His, and Adenine. Cells only grow in this selective medium if there is an interaction between the expression products of the two plasmids.
Yeast cells transfected with only one of the two plasmids were also tested as controls.

In experiment [2] the target is GFP fused to the Eg5 C-terminal peptide (Mus musculus, UniProt Q6P9P6). The conditions noted are these: 6XHis-PDZ on Ni-NTA agarose, E. coli extract, anti-GFP Western blot. The text has this:
(§1) To carry out the affinity chromatography assay, bacterially-expressed PDZ domains and EGFP derivatives were produced and fused to the different target peptides. The original and modified PDZ domains were expressed in E. coli XL1-Blue as fusions with 6XHis. The EGFP-peptides fusions were expressed in E. coli BL21 as described in Sambrook et al, 1989, Molecular Cloning: A Laboratory Manual, 2nd Ed., Vol 3. The bacterially expressed PDZ domains were then bound to nickel resin (Ni-NTA agarose, Quiagen) as described by the manufacturer. The resin-bound PDZ domains were then incubated with E.coli extracts made from bacteria expressing each of the target peptide-GFP fusions and washed four times with 50 mM NaH2PO4, 300 mM NaCl; 20 mM Imidazole; 0,1% of TritonX-100 to remove any unbound proteins. The bound proteins were eluted using 50 mM NaH2PO4, 300 mM NaCl; 200 mM Imidazole and analyzed by Western blot using antibodies against GFP to determine the presence of EGFP fused to the target peptide.

Experiment [3] has as its target GFP fused to the C-terminal peptide recognized by the original PDZ (pep, CRIPT) (Aequorea victoria, UniProt P42212, F64L/H231L/S65T). The conditions noted are these: 6XHis-PDZ on Ni-NTA agarose, E. coli extract, anti-GFP Western blot.
Source text: as §1

The target in the next experiment is GFP (Aequorea victoria, UniProt P42212, F64L/H231L/S65T). The conditions noted are these: 6XHis-PDZ on Ni-NTA agarose, E. coli extract, anti-GFP Western blot.
Source text: as §1

In another experiment the target is T1, Biotin-GG-KQTSV (Homo sapiens, UniProt Q9P021).
T1 construct: with its natural target (Biotin-GG-KQTSV)
The experiment is described as follows: Micro-calorimetric assay. Format: binding. From the text:
Physical methods for measuring the dissociation (or affinity) constant include iso-thermal calorimetry, surface plasmon resonance, analytical ultra-centrifagation (where appropriate), and so forth. Iso-thermal calorimetry is the preferred method. Iso-thermal calorimetry measures the heat released when a binding polypeptide binds to its target under constant-temperature, constant-pressure conditions. From these measurements, the thermodynamic parameters of this binding can be routinely determined by the methods of physical chemistry. For example, it is routinely possible to obtain the binding affinity (or dissociation constant), the stoichiometry of binding (n), the heat (or enthalpy) of binding (H), the heat capacity of binding, the entropy of binding, and so forth. Current micro-iso-thermal machines are readily available commercially. Such machines are fully automatic, directly returning the above thermodynamic results. See, e.g., MicoCal, LLC, Northampton. Mass.; www.microcalorimetry.com.
FIG. 14 illustrates the routine use of micro-calorimetry to determine the binding parameters of the wild-type PDZ (PDZ3 of PSD095) domain with its natural target (Biotin-GG-KQTSV). This figure present the output of an automated micro-calorimetry experiment returning the stoichiometry constant (n), the affinity constant (K), the enthalpy of binding (H), and the entropy of binding (S).

Like-named read-outs stand apart in the source and are kept apart here.

B1: PDZ-3: third PDZ domain of the mouse PSD-95 protein, amino acid 302 to 402; unmodified redesign precursor (protein, UniProt Q62108 302-402, looked up, fragment)
chain: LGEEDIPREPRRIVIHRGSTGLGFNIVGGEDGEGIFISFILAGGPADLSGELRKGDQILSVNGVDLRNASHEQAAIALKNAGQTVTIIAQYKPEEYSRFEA
modifications: PDZ 3
notes: third PDZ domain of the mouse PSD-95 protein, amino acid 302 to 402; unmodified redesign precursor
Consider B1, for which the entries for the “viability of transfected yeast cells in selective medium (interaction)” value in experiment [1] and in experiment [1] (listed as PGADT7-PDZ) were “specifically interacts with its target peptide” and “allow viability”, respectively. For the same molecule, the “binding of GFP-Eg5 fusion to immobilized PDZ domain” value in experiment [2] is on record as “not able to bind”. Besides, the figures for the “binding of GFP-pep fusion to immobilized PDZ domain” value in experiment [3] and in experiment [3] (listed as original PDZ) were “binds only to its naturally recognized target peptide” and “very efficiently bind”, respectively. In addition, the “binding of GFP alone to immobilized PDZ domain” value with GFP is recorded as “not able to bind”. Besides, the Kd in the experiment with Biotin-GG-KQTSV (corresponding to the measured affinity constant, read-out: dissociation constant) stood at 39 µM. Moreover, the “affinity constant (K)” value with Biotin-GG-KQTSV (micro-calorimetry, natural target Biotin-GG-KQTSV) was 25700 M⁻¹.
